# Assay: soluble on expression in E. coli; label from the status in PepcDB or PDB records
row,Sequence,soluble on expression in E. coli
1,MGSDKIHHHHHHMLMRDVIPQVLNRGTAMLTQDLLETPPQKTFHHAIDIYLKDSNAFMNTYFARYFEWQGICRERWFHECIHDNLLAAGGVFVTKRAHQEYVEETFPFQRVDCYLNTFQVKQCSAYLLFRFCVGGKPVSLGYQQIVFADRDKRISRFPHGIIERVKEYELVLPGLAS,not soluble
2,MTNEKGLDKGYELVAKMHEVFGHPVTNTPTKLTEERAKIRASFMQEELEEFLEATTVEDQYDALIDLIYFAFGTFAEMGVRPDKGFEIVNNANMAKLFPDGKPRFREGDGKILKPEGWQAPEPQLRAEIERQRQEAEKNC,soluble
3,MVKNVAVIVDSSFYIPKEEQQKYNIYVIPTPIIFNGRIKYDSDWSSAAKFFKDMNSAKKMPSTSMASPADVLKAFEQVRADGYRQAILMTMASGISGFYNMAVNLANDYQELDVQVWDSKFTLMISGVQALLAAELSAQGITREEIMKKVALLRDSTRVFIVVDDISHLKRTGRLAGGAALVAGLLNIKPILVFNKASKIVAIGKERQMKRAWNWLLKQYAIDAPDFDRPIRVLFADANNRALTENWQADFHEKYPDVITDFIPIGPLIGVHTGEKAVGFVYMDDWKDIARHH,not soluble
4,MLTREDIFKHVKEKYGTSPDYPWEKYPNYASLRHTSNKKWYGLIMNVLPEKLGLDGHGEIDILNLKCPPEISDRLRNGENILPGYHMDKEHWISIVLERTDPEGEIYNLIEQSFHLTKLEHHHHHH,soluble
5,MQRLFRQKMIINSLGTSPTSVDTLVELTGASPATIRRDLTDLEGHGQLRKVHGGAVAVNLRGTPMPYSLRSAENAESKTAIAQLVSRLVTDDMSVIIDNGSTMVAVAQALQERPITALCLSLRAALPLGEGGVATVSTPDGTLMPESLRYAAASCLRALGEFRADVAIVGTCSASPAMGLTVTTHQDAQVKRAILASSARVVLAATGDKLSRTSSFRFGDIEDIDDLVTTRDAPQVTLDAFRVAGSRVYVADLEHHHHHH,soluble
6,MGSDKIHHHHHHMELTGHMKNNRYSIFRNAICIAATAGMLFGCGPDKKPVEKVAEEVVLQPMVTPDFNSDSSYEYVSRQVAFGPRVPNTKPHMDCGEYLAKFFTKHGGWVYRQQFSAKAFDGTDLRLKNIIVSYNQKATKRILLAAHWDTRPFADQDEVDPKKPIDGANDGASGVGILMELARVINLAEKKPDVGFDIILFDGEDYGQPMYYPGPYQNDSWCLGSQYWAKHKFPANYSAYYGILLDMVGAKDATFAKEGVSVENAPSVVNNVWTTAARLGYGKHFINVMSQPITDDHTYINKLALIPMIDIIEYENSDDVYFGSYWHTHNDNMNIIDKNTLKAVGQTLIEVLYREKL,not soluble
7,MGADGGTIPKRCELVKERKKKEKLDKHVKNATKWRNCQLTQLPLKRPVIACRFGKLYNKEDVINSILSKTISKSASASHIKGPKDFVELKLTLNKDFKRGDVKGDDYNDVNQTEFICPITNVPMNGIQSFLVNWQCGCVYSEKAQQEVKSSNCHVCGGPYDATKMVILNPEPEQLELYKLKWEAEKAEKAAAKKDKAKKTAEKMEAAASLAAGSGGEASSVAPGPSGSGVGKHVDLKKKLEIAKLTGGSTSEKKAEKRKANTDIQSDPTTSDTYKKLFTTCEAAKNKTEGHWVTYNPLYY,soluble
8,MDFECQFVCELKELAPVPALLIRTQTTMSELGSLFEAGYHDILQLLAGQGKSPSGPPFARYFGMSAGTFEVEFGFPVEGGVEGSGRVVTGLTPSGKAASSLYIGPYGEIEAVYDALMKWVDDNGFDLSGEAYEIYLDNPAETAPDQLRTRVSLMLHESLEHHHHHH,soluble
9,MIFYLLPSEKKQSTMDLVKEDYFSIWENREKNRFPELNPYRKELIEYFKVETKPLAPAWRRYNGKFWDSLEFWCLPPEVQQNIIDRGIIISPLFGMLGVNDPIPRYSVTFQDKYKGKKLTEFWKEVLKDISKKMFESSVIFDFLTTEQRETLTFPEDVTFVRFDYIRKGKKVVNPMPHRAYTLRYIVEKNVDLNSLEKINFYDYKVSKIEKEGNVIRVIMESEGRYI,not soluble
10,MPVKCPGEYQVDGKKVILDEDCFMQNPEDWDEKVAEWLARELEGIQKMTEEHWKLVKYLREYWETFGSCPPIKMVTKETGFSLEKIYQLFPSGPAHGACKVAGAPKPTGCV,soluble
11,METFQKIKELVVVPERQSVILSVKQDLVNPLQDIAQQMAQYVTREYPLTLIDGVKLTPALEEQAFATYQTVQNLLTLKASVEDIAEALDVLEGGLTMQKVSNAEARAKAYITALNGISLWALLQAVKNLVRGEAKGMSTTFVPSCADLAQYCRDLENRLSGTAEKVFIAVENSRNLALGGKRISFMRIGKPCEELHGNLSSKAA,not soluble
12,GMSISSKAKEILTQFTREVWSEGNIEASDKYIAPKYTVLHDPGDPWEGRELDVAGYKERVKTLRAAFPDQCFDIQGLFADGDAVVMTWLWTATHKEDIPGFPSTGKQIKMSGATVYYFDGNRLTGHWQITDRLGVYQQLRQAAAGA,soluble
13,MAHHHHHHMTFPSVQSSVHLYSNVVELAIRYTDLCAFCGRKAHEGENGSTKGDRAETSGSWHFHLARSKEPIAVSCLHAIMQRTNILGGRVNLFFTFERVPPFGGHKSRAVIQLASFHYSKNMRLCLNVAYLPQEEVRLKTVRAHVDSDCNVLEVACWRVFVFLGRST,not soluble
14,MSLTITVNGVEISEDMIASQLDHYADTPSPRDTAIQQLILHTLLIQQAKSEGLDVADEQQAIQTLLDSKLQVPAIDEASCREFYDRYPERFSAGESAVASHILLPKGEGLEASLIKAKAEGILEEAQANPSRFAALAQEHSTCPSGKQGGSLGQFGRGQMVPEFEQAVFSTEAGQITPHLVETQFGYHIIQVEQRAEGGKIGFDEVKERLQHYLADLAVNQAMHEYLNMLVSAAQISGYQMTAEGHHHHHH,soluble
15,LSNGQGSRVLHVVQTLYPFSSVTEEELNFEKGETMEVIEKPENDPEWWKCKNARGQVGLVPKNYVVVLSDGPALHPAH,soluble
16,MNRFLKHWRLSGRCEAFHGQIISYADDFVILSRGHAEDALTWTKAVMTKLGLTLNETKTSVKNARLESFDFLGYTLGPRHFRNGGRWYLGAAPSKKSVLRIKRKVSELLTPGNKGAWPEVQARLNRLLRGWSAYFSYGSLATAHQAVDRHVFDRVLAFLRRRHKTPGRGVRRFSDQIYGNPGVLVLNRVRKVSPTCALLEHHHHHH,not soluble
17,TKEHRAAARKIAGESFVLLKNEGLSPTLAPVLPLSPTGTIAVIGPLANTRSNMPGTWSVAAVLDKSPSLVEGLTEWVGNQGKILYAKGSNLIGDAAYEERATMFGRSLNRDNRTDQQLLDEALKIASQADVIVAALGESSEMSGESSSRTNLNLPDVQHTLLEALLKTGKPVVLVLFTGRPLVLNWEQEHVPAILNVWFGGSEAGPAIGDVLFGAVNPGGKLTMTFPKSVGQIPLYYAHKNTGRPLKEGKWFEKFRSNYLDVDNDALYPFGYGLSYTTF,not soluble
18,MGSDKIHHHHHHMYLEAFTSHFNSIADSRQSAKVTYPLHDVLFVTLCGVIAGAEGWSEIHDYAAGHHTWFKEKGILTEGVPVDDTIARIISRIEPEQFRLCFANWMRAVHEMSDGHLIAIDGKTLRASYNREDRRSTIHMVNAFACANKVVLGQVKTANKSNEITAIPALLQLLDIEGALVSIDAMGCQTEIARQIVEQGGDYLLAVKVNQSSLHEAVVSAFSEARSNPLDGLVIEKNRGRIEARAYYVIPANQLQDNFPKWMKLNTLGMCLSYRHTKGKEAELTYRYYISSATLDEQLLANSVRGHWGIENSLHWVLDVSMKEDSCQIYQHHGAENWAMLRHISLNMLRAEPSKGSIPAKQKRAWMKPEYLESVLLAGLQLDEF,not soluble
19,MGSDKIHHHHHHMQYTELVPGTLIRRYKRFLADVALASGDVVVAHCPNTGSMRAVDVPGCRVWLSPSRNPARKLAWTWELIELPMPDAPPALVSVHTGRANALVAQALQEARIPELAGYDTHKREVRVADARLDFRLSTAHAAAYVEVKQVTLREHDGHGYFPDSVSERGRRHLEALAARVAEGDRAVLLFCVAHTGIDAVAPAAHLDPAYAETLRRVAAQGVEVLAYGMSATWTHDGVPGDIALTRALPVSLERRLASATPLSD,not soluble
20,AMEVHPISEFASPFEVFKCIERDFKVAGLLESIGGPQYKARYSVIAWSTNGYLKIHDDPVNILNGYLKDLKLADIPGLFKGGMIGYISYDAVRFWEKIRDLKPAAEDWPYAEFFTPDNIIIYDHNEGKVYVNADLSSVGGCGDIGEFKVSFYDESLNKNSYERIVSESLEYIRSGYIFQVVLSRFYRYIFSGDPLRIYYNLRRINPSPYMFYLKFDEKYLIGSSPELLFRVQDNIVETYPIAGTRPRGADQEEDLKLELELMNSEKDKAEHLMLVDLARNDLGKVCVPGTVKVPELMYVEKYSHVQHIVSKVIGTLKKKYNALNVLSATFPAGTVSGAPKPMAMNIIETLEEYKRGPYAGAVGFISADGNAEFAIAIRTAFLNKELLRIHAGAGIVYDSNPESEYFETEHKLKALKTAIGVR,soluble
21,GPGSMAASQLIATRFTDLLAEGNIESALKYIANDVVYNTWLGVVYGKDNVEVFLRDNVRFVHHGRNYNRWKQVQHSLDASLKQFTVNDVSGYDESALDVRSYYDSEGYDSQGYATFERDGTIASHAKFAVFHVKVKETVVLRNNKVVLVNVSKRA,not soluble
22,MGSSHHHHHHSSGRENLYFQGHMLLHIPAIFTAEEVSRIRAALEQAEWADGKATAGYQSAKAKHNLQLPQDHPLAREIGEAMLQRLWNHPLFMSAALPLKVFPPLFNCYTGGGSFDFHIDNAVRDVHGGRERVRTDLSSTLFFSDPEDYDGGELVIQDTYGLQQVKLPAGDLVLYPGTSLHKVNPVTRGARYASFFWTQSLVREDSQRTLLFEMDQSIQRLTRDVPDHPSLIRLTGTYHNLLRRWSEL,soluble
23,GDKVIVMGHKRPDLDAIGAAIGVSRFASMNNLEAFIVLNDSDIDPTLRRVMDEIDKKPELKERFVTSDEAWDMMTSKTTVVVVDTHKPEMVLDENVLNKANRKVVIDHHRRGESFISNPLLVYMEPYASSTAELVTELLEYQPTEQRLTRLESTVMYAGIIVDTRNFTLRTGSRTFDAASYLRAHGADTILTQHFLKDDV,not soluble
24,DRYCLTAPNYRLKSLQKKASTSAGRITVPRLSVGSVTSRPSTPTLGTPTPQTMSVSTKVGTPMSLTGQRFTVQMPTSQSPAVKASIPATSAVQNVLINPSLIGSKNILITTNMMSSQNTANESSNALKRKR,soluble
25,AHHHHHHGSVLKCVVCGREYPEDEVRYRCECGGLLEVVIDLDKVDTSIFNGKEIKLWKYESWLPVKKRVSLEEGGTPLYRLLNLESDLGVKELYAKNEGANPTGSFKDRGMTVGVSKALELGMDKVICASTGNTSASLAAYAAKAGIKAYVLIPSGKIALGKLAQAIIYGARVVPIKGNFDDALRVVVETSKELGIYMLNSINPFRLEGQKTIAYEIYDQLGKVPDNVILPVGNAGNISAIWKGFKEMYEAGVIDELPRMIGIQAEGASPLAKAWKEKRKFQPEESPETIASAIRIGNPANWIKAWRAVEESGGLFESVSDEEILRAQKLLASREGLFVEPASAASLAGLIKLLESGEISRNESYVLITTGHGLKDPNIVIKNFQVPEPIDPTLEAFKEVIE,soluble
